Reference: patent publication US20090286727A1 (Ablynx, published 2009)
Values belong to the binder of their own block, whether it stands above or below them.

Biological target: T1, human IL6 (human, UniProt P05231 30-212, biotinylated in the ELISA (bio-IL6); site not given)
T1 construct: In the ELISA it was biotinylated and captured on a neutravidin-coated plate; In Biacore it was on a CM5 sensor chip; also called bio-IL6; biotinylated human IL6
Test: SPR, Biacore 3000, human IL6 on CM5 chip, Nanobody 3.75 nM to 2 uM
Protocol: Binding of VH4 Nanobodies to different antigens was evaluated by surface plasmon resonance on a Biacore 3000 instrument. […]

- Kd: 46 nM
- koff: 0.0018 s⁻¹
- kon: 40000 M⁻¹ s⁻¹
B1: VH4 20.1 (VHH)
VHH: QVQLQESGPGLVKPSQTLSLTCTVSGGSITTYNYAWSWIRQPPGKGLEWMGVIAYDGSTYYSPSLKSRTSISRDTSKNQFSLQLSSVTPEDTAVYYCARGTVGSWYDEFPPRYDYWGQGTQVTVSS
notes: The two are tied only by the clone number; also called anti-IL6 VH4 Nanobody 20.1; VH4 Nanobody 20.1; not shown: His6 tag from vector pAX51

- Kd: 19 nM
- koff: 0.00036 s⁻¹
- kon: 19000 M⁻¹ s⁻¹
B2: VH4 16.1 (VHH)
VHH: QVQLQESGPGLVKPSQTLSLTCTVSGGSITTYRYYWSWIRQPPGKGLEWMGAIAYSGSTYYSPSLKSRTSISRDTTKNQFTLQLSSVTPEDTAVYYCARGRLGSWYYELNEYDYWGQGTQVTVSS
notes: The two are tied only by the clone number; Llama VH4-class Nanobody, purified by IMAC as a His6-tagged protein; also called anti-IL6 VH4 Nanobody 16.1; VH4 cl16; not shown: His6 tag from vector pAX51
